The text below walks through data of paper PMC9552611, “MtTRC-1, a Novel Transcription Factor, Regulates Cellulase Production via Directly Modulating the Genes Expression of the Mthac-1 and Mtcbh-1 in Myceliophthora thermophila”.

Data set [1] has as its target T1, GST-MtTRC-1-DBD (Myceliophthora thermophila ATCC 42464) (UniProt G2Q031).
T1 sequence: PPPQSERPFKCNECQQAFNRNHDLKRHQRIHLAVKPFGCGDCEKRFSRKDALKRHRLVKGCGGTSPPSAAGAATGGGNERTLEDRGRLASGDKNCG
As to the kind of experiment: EMSA. As to conditions: EMSA: 20 mM Tris-base pH 7.5, 20 mM KCl, 10 mM MgCl2, 2 mM DTT, 0.5 ug/uL BSA, 0.2 mg/mL fish sperm DNA, 5% glycerol, 25 C 30 min, 10 ng probe; gel 5% PAGE …. In general terms: A gel shift assay detects complexes by their altered migration in electrophoresis.

For a further data set, the target named is T2, GST-MtTRC-1-DBD (Myceliophthora thermophila ATCC 42464, UniProt G2Q031 355-450).
T2 sequence: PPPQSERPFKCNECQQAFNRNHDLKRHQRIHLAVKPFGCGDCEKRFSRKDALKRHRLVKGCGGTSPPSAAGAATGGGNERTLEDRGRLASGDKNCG
Put plainly: EMSA; EMSA: 20 mM Tris-base pH 7.5, 20 mM KCl, 10 mM MgCl2, 2 mM DTT, 0.5 ug/uL BSA, 0.2 mg/mL fish sperm DNA, 5% glycerol, 25 C 30 min, 10 ng probe; gel 5% PAGE 0.5x TBE 4 C. Footprinting: 400 ng probe in 40 uL, 25 C 30 min. The conditions noted are these: protein: recombinant; tags: GST (N-terminal, pGEX-4T-1); label: Cy5.

With “TTTGCACCATGGAACCTGTGCCCAAAGAACCAAAGAACGCTATTCGCACATATTGCGAATCAGTTGCCAGTGATAGGGGGCGGGGACAGAACCCAAGCCGAGACATACTGTACAACCCAGCGGGTTGTCAATTGCACGCTACATGGTGTAATTTGTATTCCGGACGCACATCATTTCGCAGTTAAGGTTGTGCCCGCTTTTCTGCACTGCCGCTTTGGCGTCTCTTTTTTTTTTTTTTTACGAAGGCTTGCAAGGCGACGTCTTACGCGGTCGGACTTGAATCAGACA (double strand) [Mthac-1-P3]”, in data set [1], the binding result is given as “binds”.

B1: Mthac-1-P7-FP-M4 (dsDNA)
DNA 1: GATGTGTTTTACAATCGTTCTATTTATTCATTGCTTGACTTGTGGG
DNA 2: CCCACAAGTCAAGCAATGAATAAATAGAACGATTGTAAAACACATC
On to B1, for which the binding result with GST-MtTRC-1-DBD was “no binding”.
